The results in this text go back to paper PMC11336063.

The target in this assay is N-terminal domain of eIF2α (eIF2α-NTD), amino acids 2–187 (UniProt P05198).
Chain of UniProt P05198 (P05198 2-187): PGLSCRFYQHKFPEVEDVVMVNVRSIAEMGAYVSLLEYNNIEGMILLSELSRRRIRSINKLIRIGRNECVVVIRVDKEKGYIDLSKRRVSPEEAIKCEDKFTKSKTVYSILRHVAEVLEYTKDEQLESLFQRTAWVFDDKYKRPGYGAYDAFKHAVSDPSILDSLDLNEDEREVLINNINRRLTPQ

Turning to “human GCN2 G1109R variant, 3xFLAG tagged (from UniProt Q9P2K8 1-1649) (enzyme)”, the eIF2α-S51 phosphorylation of eIF2α-NTD (1 μM) by immunopurified GCN2 variant in the in vitro kinase assay, percent came to 27.2%. With “human GCN2 P1115L variant, 3xFLAG tagged (from UniProt Q9P2K8 1-1649) (enzyme)”, the eIF2α-S51 phosphorylation of eIF2α-NTD (1 μM) by immunopurified GCN2 variant in the in vitro kinase assay, percent is 12.9%.
